{
  "source": "the nanobody polyreactivity screen of Harvey et al. (2022)",
  "data": [
    {"assay": "yeast display, Sf9 membrane polyspecificity reagent, FACS + sequencing; frameworks hold sequencing errors", "in_short": "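A synthetic nanobody library was expressed on Saccharomyces cerevisiae BJ5465 by galactose induction for 36–48 hours. The library was stained for 1 hour at 4 °C with 10% biotinylated, detergent-solubilized Sf9 membrane reagent and enriched with streptavidin microbeads before FACS. Low and high (top ~1%) gates were set on anti-HA fluorescence for expression and streptavidin fluorescence for reagent binding, and each polyreactivity label reflects the gate of origin.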", "values": [
      {"sequence": "QVQLVESGGGLVQAGGSLRLSCAASGSTFGHYAMGWYRQAPGKERELVAVISRSGARTYYADSVKGRFTISRDNAKNTVYLQMNSLKPEDTAVYYCNAGPYGGNPFDYWGQGTQVTVSS", "polyreactivity (PSR sort gate)": "high polyreactivity"},
      {"sequence": "QVQLVESGGGLVQAGGSLRLSCAASGSTFGINAMGWYRQAHGKERELVARISSGVRTYYADSVKGRFTISRDNAKNTVYLQMNSLKPEDTAVYYCAAVYYRGVDRAILSYRYYYWGQGTQVTVSS", "polyreactivity (PSR sort gate)": "high polyreactivity"},
      {"sequence": "QVQLVESGGGLVQAGGSLRLSCAASGSTFGINAMVWYRQAPGKERELVASITRRGGSTYYADSVKGRFTISRDNAKNTVYLQMNSLKPEDTAVYYCNKTYRYGTPLYDYWGQGTQVTVSS", "polyreactivity (PSR sort gate)": "high polyreactivity"},
      {"sequence": "QVQLVESGGGLVQAGGSLRLSCAASGSTFGIYAMRWYRQAPGKERELVAAISSRGSTYYADSVKGRFTISRDNAKNTVYLQMNSLKPEDTAVYYCAAKVWARVDGRQFRMVYWGQGTQVTVSS", "polyreactivity (PSR sort gate)": "high polyreactivity"},
      {"sequence": "QVQLVESGGGLVQAGGSLRLSCAASGSTFGIYPMAGNRTEPGKERELVAAISSGGSTNYADSVKGRFTISRDNAKNSVYLQMNSLNPEDTAVYYCAVESVYEYGGYVDSAYDYWGQGTQVTVSS", "polyreactivity (PSR sort gate)": "low polyreactivity"},
      {"sequence": "QVQLVESGGGLVQAGGSLRLSCAASGSTFGKNAMGWSRQAPGNERELVAGITSGGSTYYADSVKGRFTISRDNAKNTVYLQMNSLKPEDTAVYYCAAVRRWKYDWGQGTQVTVSS", "polyreactivity (PSR sort gate)": "high polyreactivity"},
      {"sequence": "QVQLVESGGGLVQAGGSLRLSCAASGSTFGKNAMGWYRQAPRKERELVAAISRSGGRTYYADSVKGRFTISRDNAKNTVYLQMNSLKPEDTAVYYCAREWYTAGSGDYWGQGTQVTVSS", "polyreactivity (PSR sort gate)": "low polyreactivity"},
      {"sequence": "QVQLVESGGGLVQAGGSLRLSCAASGSTFGLKAMGWYRQAPGKERELVAAITSGGTYYADSVKGRFTISRDNAKNTVYLQMNSLKPEDTAVYYCAADGTWSIYGGLYYWGQGTQVTVSS", "polyreactivity (PSR sort gate)": "low polyreactivity"},
      {"sequence": "QVQLVESGGGLVQAGGSLRLSCAASGSTFGLNPMGWYRQAPGKERELVAAISTSGGSTYYADSVKGRFTISRDNAKNTVYLQMNSLKPEDTAVYYCAAEVVAGYDYSQYYYWGQGTQVTVSS", "polyreactivity (PSR sort gate)": "low polyreactivity"},
      {"sequence": "QVQLVESGGGLVQAGGSLRLSCAASGSTFGLYAMGWYRQAPGKEREFVAAISYSGSSTYYADSVKGRFTISRDNAKNTVYLQMNSLKPSDTAVYYCAARRSEHGYTYWGQGSQVTVSS", "polyreactivity (PSR sort gate)": "high polyreactivity"},
      {"sequence": "QVQLVESGGGLVQAGGSLRLSCAASGSTFGLYGMGWYRQAPGKERELVAAITYSGGGTYYADSVKGRFTISRDNAKNTVYLQMNSLKPEDTAVYYCAAEYYSSITGWYYYWGQGTLVTVSS", "polyreactivity (PSR sort gate)": "low polyreactivity"},
      {"sequence": "QVQLVESGGGLVQAGGSLRLSCAASGSTFGLYVMGWYRQAPGKERELVAAINRICSRTYYADSVKGRFTISRDNAKNTVYLQMNSLKPEDTAVYYCAADYDYTSPGDDYWGQGTQVTVSS", "polyreactivity (PSR sort gate)": "high polyreactivity"},
      {"sequence": "QVQLVESGGGLVQAGGSLRLSCAASGSTFGLYVMGWYRQAPGKERELVATITRSGGSTYADSVKGRFTISRDNAKNTVYLQMNSLKPEDTAVYYCNADYPKPVYYSYWHQEFEYWGQGTQVTVSS", "polyreactivity (PSR sort gate)": "low polyreactivity"},
      {"sequence": "QVQLVESGGGLVQAGGSLRLSCAASGSTFGNNAMGWYRQAPGKERELVAAITFRGTSTYADSVKGRFTISRDNAKNTVSLQMNSLKPEDTAVYYCAAVVYFVSYRFYYWGQGTQVTVSS", "polyreactivity (PSR sort gate)": "high polyreactivity"},
      {"sequence": "QVQLVESGGGLVQAGGSLRLSCAASGSTFGNYAMGWYRQAPGKERELVATISRSGGSTYYADSVKGRFTISRDNAKNTVYLQMNSLKPEDTAVYYCNRRYYTRKPDYNSWGQGTQVTVSS", "polyreactivity (PSR sort gate)": "high polyreactivity"},
      {"sequence": "QVQLVESGGGLVQAGGSLRLSCAASGSTFGNYAMGWYRQAPGKERELVAVITSAGSTYYADSVKGRFTISRDNAKNTVYLQMNSLKPEDTAVYYCNTGKHVRYYYWGQGTQVTVSS", "polyreactivity (PSR sort gate)": "low polyreactivity"},
      {"sequence": "QVQLVESGGGLVQAGGSLRLSCAASGSTFGPYALGWYRQAPGKERELVAAIDKSGGSTYYADSVKGRFTISRDNAKNTVYLQMNSLKPEDTAVYYCAADMLRYFGYYDYDSWGQGTQVTVSS", "polyreactivity (PSR sort gate)": "low polyreactivity"},
      {"sequence": "QVQLVESGGGLVQAGGSLRLSCAASGSTFGPYAMGWYRQAPGKERELVAGITWSSASTYYADSVKGRFTISRDNAKNTVYLQMNSLKPEDTAVYYCIADSESTDYDYWGQGTQVTVSS", "polyreactivity (PSR sort gate)": "low polyreactivity"},
      {"sequence": "QVQLVESGGGLVQAGGSLRLSCAASGSTFGPYAMGWYRQAPGKERELVATISGSGSSTYYADSVKGRFTISRDNAKNTVYLQMNSLKPEDTAVYYCATDLYFDLRYDYWGQGTQVTVSS", "polyreactivity (PSR sort gate)": "low polyreactivity"},
      {"sequence": "QVQLVESGGGLVQAGGSLRLSCAASGSTFGPYTMGWYRQAPGKERELVATISSGGSTYYADSVKGRFTISRDNAKNTVYLQMNSLKPEDTAVYYCAARYWSIYDYWGQGTQVTVSS", "polyreactivity (PSR sort gate)": "low polyreactivity"},
      {"sequence": "QVQLVESGGGLVQAGGSLRLSCAASGSTFGQYGMGWYRQAPGKERELVAAIRIGGSTNYADSVKGRFTISRDNAKNTVYLQMNSLKPEDTAVYYCNAGGTPTWTHGGYIELDYWGQGTQVTVSS", "polyreactivity (PSR sort gate)": "low polyreactivity"},
      {"sequence": "QVQLVESGGGLVQAGGSLRLSCAASGSTFGRNAMGWYRQAPGKERELVAAISRSGGSTYYADSVKGRFTISRDNAKNTVYLQMNRLKPEDTAVYYCAAAVSPGGVYGNRYYYWGQGTQVTVSS", "polyreactivity (PSR sort gate)": "high polyreactivity"},
      {"sequence": "QVQLVESGGGLVQAGGSLRLSCAASGSTFGRNAMGWYRQAPGKERELVAAITASGGTTYYADSVKGRFTISRDNAKNTVFLQMNSLKPEDTSVYYCARAGHFSFKYDYWGQGTQVTVSS", "polyreactivity (PSR sort gate)": "low polyreactivity"},
      {"sequence": "QVQLVESGGGLVQAGGSLRLSCAASGSTFGRNAMGWYRQAPGKERELVAGITRRGGSTYYADSVKGRFTISRDNAKNTVYLQMNSLKPEDTAVYYCNTRGQSSSGIYDYWGQGTQVTVSS", "polyreactivity (PSR sort gate)": "high polyreactivity"},
      {"sequence": "QVQLVESGGGLVQAGGSLRLSCAASGSTFGRNAMGWYRQAPGKERELVATINWNGGRTYYADSVKGRFTISRDNAKNSVYLQMNSLKPEDTAVYYCNATKTGPATVRYYYWGQGTQVTVSS", "polyreactivity (PSR sort gate)": "high polyreactivity"},
      {"sequence": "QVQLVESGGGLVQAGGSLRLSCAASGSTFGRNTMGWYRPAPGKERELVASITRSSTSTYYADSVKGRFTISRDNAKNTVYLQMNSLKPEDTAVYYCAARALRTDRSPVGRHEYWGQGTQVTVSS", "polyreactivity (PSR sort gate)": "low polyreactivity"},
      {"sequence": "QVQLVESGGGLVQAGGSLRLSCAASGSTFGRYALGWYRQAPGKEREFVAAISWSGGSTYYADSVKGRFTISRDNAKNTVYLQMNSLKPEDSAVYYCAASYIYQSSWYHRMYYWGQGTQVTVSS", "polyreactivity (PSR sort gate)": "high polyreactivity"},
      {"sequence": "QVQLVESGGGLVQAGGSLRLSCAASGSTFGRYAMGWYREAPGKERELVAGITYGSTYYADSVKGRVTISRDNAKNTVYLPMNSLKPEDTAVYACAADLSYTSVHGYRSETLMDYWGQGTQVTVSS", "polyreactivity (PSR sort gate)": "low polyreactivity"},
      {"sequence": "QVQLVESGGGLVQAGGSLRLSCAASGSTFGRYAMGWYRQAPGKERELVAAISRRGGSTYYADSVKGRFTISRDNAKNTVYLQMNSLKPEDTAVYYCATGYPIDLGREFDYWGQGIQVTVSS", "polyreactivity (PSR sort gate)": "high polyreactivity"},
      {"sequence": "QVQLVESGGGLVQAGGSLRLSCAASGSTFGRYAMGWYRQAPGKERELVAAITSDTGHTNYADSVKGRFTISRDNAKNTVYLQMNSLKPEDTAVYYCAAANFWVLWGHVIGNYDSWGQGTQVTVSS", "polyreactivity (PSR sort gate)": "low polyreactivity"},
      {"sequence": "QVQLVESGGGLVQAGGSLRLSCAASGSTFGRYGMGWYSQAPGKERELVAAISKNAGSTYYADSVKGRCTISRDNAKNTVYLQMNSLKPEDTAVYYCAADWRTKGYDSLGQGTQVTVSS", "polyreactivity (PSR sort gate)": "high polyreactivity"},
      {"sequence": "QVQLVESGGGLVQAGGSLRLSCAASGSTFGRYVMGWYRQAPGKERELVAAISYSGGRTYYADSVKGRFTISRDNAKNTVYLQMNSLKPEDTAVYYCNKGGIREYDYWGQGTQVTVSS", "polyreactivity (PSR sort gate)": "high polyreactivity"},
      {"sequence": "QVQLVESGGGLVQAGGSLRLSCAASGSTFGSNAIGWYRQAPGKERELVAAISKRGGSTYYADSVKGRFTISRDNAKNTVYLQMNSLKPEDTAVYYCAVAYTPSRRYSAYSADRMDYWGQGTQVTVSS", "polyreactivity (PSR sort gate)": "high polyreactivity"},
      {"sequence": "QVQLVESGGGLVQAGGSLRLSCAASGSTFGSYAMGWYRQAPGKERELVAAITGSGGRTYYADSVKGRFTISRDNAKNRVYLQLNSLKPEDTAVYYCAKVPDYRFEYWGQGTQVTVSS", "polyreactivity (PSR sort gate)": "high polyreactivity"},
      {"sequence": "QVQLVESGGGLVQAGGSLRLSCAASGSTFGSYAMGWYRQAPGKERELVASISSRGGSTYYADSVKGRFTISRDNAKNTVYLQMNSLKPEDTAVYYCPATRYSAYSRGKYNFWGQGTQVTVSS", "polyreactivity (PSR sort gate)": "high polyreactivity"},
      {"sequence": "QVQLVESGGGLVQAGGSLRLSCAASGSTFGTNVMGWYRQAPGKERELVAAISRRGSSTYYADSVKGRFTISRDNAKNTVYLQMNSLKPEDTAVYYCAARVYPSAAMDSWGQGTQVTVSS", "polyreactivity (PSR sort gate)": "high polyreactivity"},
      {"sequence": "QVQLVESGGGLVQAGGSLRLSCAASGSTFGTYAMGWYRQAPGKERELVAAITSGDNTYYADSVKGRFTISRDNAKNTVYLPMNSLKPEDTAVYYCAKDYNRYYWPWVIRGYDYWGQGTHVTVSS", "polyreactivity (PSR sort gate)": "low polyreactivity"},
      {"sequence": "QVQLVESGGGLVQAGGSLRLSCAASGSTFGTYAMGWYRQEPGKERELVAAINRDGGRTYYADSVKGRFTISRDNAKNTVYLQMNSLKPEDTAVYYCAAEGLDEGDYWGQGTQVTVSS", "polyreactivity (PSR sort gate)": "low polyreactivity"},
      {"sequence": "QVQLVESGGGLVQAGGSLRLSCAASGSTFGVNALGWYRQAPGKERELVAVITRSGGSTYYADSVKGRFTISRDNAKNTVYLQMNSLKPEDTAVYYCAKSGVVDWGQGTQVTVSS", "polyreactivity (PSR sort gate)": "low polyreactivity"},
      {"sequence": "QVQLVESGGGLVQAGGSLRLSCAASGSTFGVNAMGWYRQAPGKERELVADMSFRTDSTYYADSVKGRFTISRDNAKNTVYLQMNRLNPEDTAVYYCAAEVPYYYPGFYSYYDDSDYWGQGTQVTVSS", "polyreactivity (PSR sort gate)": "low polyreactivity"},
      {"sequence": "QVQLVESGGGLVQAGGSLRLSCAASGSTFGVNAMGWYRQAPGKERELVAIITSTTYADSVKGRFTISRDNAKNTVYLQMNSLKPEDTAVYYCAKDQERVTKGRFYLLEYYWGQGTQVTVSS", "polyreactivity (PSR sort gate)": "low polyreactivity"}
    ]}
  ]
}
